The results in this text go back to paper PMC10945584, “Dual recognition of multiple signals in bacterial outer membrane proteins enhances assembly and maintains membrane integrity” (eLife, 2024).

Where “and” joins values, the source holds several entries; their conditions need not be identical. Equal entries are not always repeated.

By stoichiometry N is commonly meant a count of units in the complex or per binding partner.

Data set [1] deals with the molecule itself. In words: native gel or EMSA; 35S-labeled substrate incubated with E. coli microsomal membranes (EMM) at 30 °C, membranes solubilised in 1.5% DDM, BN-PAGE and radio-imaging. (In general: A gel shift assay detects complexes by their altered migration in electrophoresis.)
Data set [2] concerns the molecule itself. Kind of data set: native gel or EMSA; EMM from E. coli strains solubilised with 1.5% DDM, BN-PAGE and immunoblotting.
Data set [3] deals with the molecule itself. In words: SDS-PAGE of unboiled samples after folding into detergent micelles; 5 μM urea-denatured OmpC in 10 mM phosphate pH 8.0, 2 mM EDTA, 1 mM glycine, 3.4 mM DDM, 37 °C up to 36 h; samples boiled or kept at room temperature.

B1: 35S-labeled OmpC(Y286A), in vitro translated (natural protein, Escherichia coli, UniProt P06996 1-367, looked up)
chain: MKVKVLSLLVPALLVAGAANAAEVYNKDGNKLDLYGKVDGLHYFSDNKDVDGDQTYMRLGFKGETQVTDQLTGYGQWEYQIQGNSAENENNSWTRVAFAGLKFQDVGSFDYGRNYGVVYDVTSWTDVLPEFGGDTYGSDNFMQQRGNGFATYRNTDFFGLVDGLNFAVQYQGKNGNPSGEGFTSGVTNNGRDALRQNGDGVGGSITYDYEGFGIGGAISSSKRTDAQNTAAYIGNGDRAETYTGGLKYDANNIYLAAQYTQTYNATRVGSLGWANKAQNFEAVAQAQFDFGLRPSLAYLQSKGKNLGRGYDDEDILKYVDVGATYYFNKNMSTYVDYKINLLDDNQFTRDAGINTDNIVALGLVYQF
modifications: 35S-methionine label
notes: OmpC, E. coli; also called internal signal mutant; source: in vitro translated (rabbit reticulocyte lysate, 35S-methionine)
With B1, in data set [1], the “stoichiometry N” value is 3.

B2: 35S-labeled OmpC, in vitro translated (natural protein, Escherichia coli, UniProt P06996 1-367, looked up)
chain: MKVKVLSLLVPALLVAGAANAAEVYNKDGNKLDLYGKVDGLHYFSDNKDVDGDQTYMRLGFKGETQVTDQLTGYGQWEYQIQGNSAENENNSWTRVAFAGLKFQDVGSFDYGRNYGVVYDVTSWTDVLPEFGGDTYGSDNFMQQRGNGFATYRNTDFFGLVDGLNFAVQYQGKNGNPSGEGFTSGVTNNGRDALRQNGDGVGGSITYDYEGFGIGGAISSSKRTDAQNTAAYIGNGDRAETYTGGLKYDANNIYLAAQYTQTYNATRVGSLGWANKAQNFEAVAQYQFDFGLRPSLAYLQSKGKNLGRGYDDEDILKYVDVGATYYFNKNMSTYVDYKINLLDDNQFTRDAGINTDNIVALGLVYQF
modifications: 35S-methionine label
notes: OmpC, E. coli; also called 35S-OmpC; OmpC(WT); source: in vitro translated (rabbit reticulocyte lysate, 35S-methionine)
In the case of B2, the “stoichiometry N” value in data set [1] came to 3.

B3: 35S-labeled OmpF, in vitro translated (natural protein, Escherichia coli, UniProt P02931 1-362, looked up)
chain: MMKRNILAVIVPALLVAGTANAAEIYNKDGNKVDLYGKAVGLHYFSKGNGENSYGGNGDMTYARLGFKGETQINSDLTGYGQWEYNFQGNNSEGADAQTGNKTRLAFAGLKYADVGSFDYGRNYGVVYDALGYTDMLPEFGGDTAYSDDFFVGRVGGVATYRNSNFFGLVDGLNFAVQYLGKNERDTARRSNGDGVGGSISYEYEGFGIVGAYGAADRTNLQEAQPLGNGKKAEQWATGLKYDANNIYLAANYGETRNATPITNKFTNTSGFANKTQDVLLVAQYQFDFGLRPSIAYTKSKAKDVEGIGDVDLVNYFEVGATYYFNKNMSTYVDYIINQIDSDNKLGVGSDDTVAVGIVYQF
modifications: 35S-methionine label
notes: OmpF, E. coli; source: in vitro translated (rabbit reticulocyte lysate, 35S-methionine)
With B3, in data set [1], the “stoichiometry N” value is 3.

B4: FLAG-OmpC expressed in E. coli (natural protein, Escherichia coli, UniProt P06996 22-367, looked up)
chain: AEVYNKDGNKLDLYGKVDGLHYFSDNKDVDGDQTYMRLGFKGETQVTDQLTGYGQWEYQIQGNSAENENNSWTRVAFAGLKFQDVGSFDYGRNYGVVYDVTSWTDVLPEFGGDTYGSDNFMQQRGNGFATYRNTDFFGLVDGLNFAVQYQGKNGNPSGEGFTSGVTNNGRDALRQNGDGVGGSITYDYEGFGIGGAISSSKRTDAQNTAAYIGNGDRAETYTGGLKYDANNIYLAAQYTQTYNATRVGSLGWANKAQNFEAVAQYQFDFGLRPSLAYLQSKGKNLGRGYDDEDILKYVDVGATYYFNKNMSTYVDYKINLLDDNQFTRDAGINTDNIVALGLVYQF
notes: OmpC, E. coli; Two plasmid names are printed for FLAG-OmpC; also called FLAG-OmpC(WT); FLAG-tagged form of OmpC; not shown: FLAG, N-terminal, kept
In the case of B4, the “stoichiometry N” value in data set [2] is 2 and 3.

B5: OmpC, His6-tagged, purified, urea-denatured (natural protein, Escherichia coli, UniProt P06996 22-367, looked up)
chain: AEVYNKDGNKLDLYGKVDGLHYFSDNKDVDGDQTYMRLGFKGETQVTDQLTGYGQWEYQIQGNSAENENNSWTRVAFAGLKFQDVGSFDYGRNYGVVYDVTSWTDVLPEFGGDTYGSDNFMQQRGNGFATYRNTDFFGLVDGLNFAVQYQGKNGNPSGEGFTSGVTNNGRDALRQNGDGVGGSITYDYEGFGIGGAISSSKRTDAQNTAAYIGNGDRAETYTGGLKYDANNIYLAAQYTQTYNATRVGSLGWANKAQNFEAVAQYQFDFGLRPSLAYLQSKGKNLGRGYDDEDILKYVDVGATYYFNKNMSTYVDYKINLLDDNQFTRDAGINTDNIVALGLVYQF
notes: OmpC, E. coli; also called OmpC(WT); native OmpC protein; source: E. coli BL21(DE3)*, inclusion bodies, purified in 6 M urea (Ni-NTA)
Turning to B5, the “stoichiometry N” value in data set [3] is 3 and 2.

B6: 35S-labeled LamB, in vitro translated (natural protein, Escherichia coli, UniProt P02943 1-446, looked up)
chain: MMITLRKLPLAVAVAAGVMSAQAMAVDFHGYARSGIGWTGSGGEQQCFQTTGAQSKYRLGNECETYAELKLGQEVWKEGDKSFYFDTNVAYSVAQQNDWEATDPAFREANVQGKNLIEWLPGSTIWAGKRFYQRHDVHMIDFYYWDISGPGAGLENIDVGFGKLSLAATRSSEAGGSSSFASNNIYDYTNETANDVFDVRLAQMEINPGGTLELGVDYGRANLRDNYRLVDGASKDGWLFTAEHTQSVLKGFNKFVVQYATDSMTSQGKGLSQGSGVAFDNEKFAYNINNNGHMLRILDHGAISMGDNWDMMYVGMYQDINWDNDNGTKWWTVGIRPMYKWTPIMSTVMEIGYDNVESQRTGDKNNQYKITLAQQWQAGDSIWSRPAIRVFATYAKWDEKWGYDYTGNADNNANFGKAVPADFNGGSFGRGDSDEWTFGAQMEIWW
modifications: 35S-methionine label
notes: LamB (maltoporin), E. coli; also called maltoporin; source: in vitro translated (rabbit reticulocyte lysate, 35S-methionine)
Consider B6, for which the “stoichiometry N” value in data set [1] was determined as 3.

B7: OmpF, endogenous (natural protein, Escherichia coli (endogenous), UniProt P02931 23-362, looked up)
chain: AEIYNKDGNKVDLYGKAVGLHYFSKGNGENSYGGNGDMTYARLGFKGETQINSDLTGYGQWEYNFQGNNSEGADAQTGNKTRLAFAGLKYADVGSFDYGRNYGVVYDALGYTDMLPEFGGDTAYSDDFFVGRVGGVATYRNSNFFGLVDGLNFAVQYLGKNERDTARRSNGDGVGGSISYEYEGFGIVGAYGAADRTNLQEAQPLGNGKKAEQWATGLKYDANNIYLAANYGETRNATPITNKFTNTSGFANKTQDVLLVAQYQFDFGLRPSIAYTKSKAKDVEGIGDVDLVNYFEVGATYYFNKNMSTYVDYIINQIDSDNKLGVGSDDTVAVGIVYQF
notes: OmpF, E. coli; also called endogenous OmpF; trimeric OmpF; source: endogenous, E. coli membrane fractions (EMM)
For B7, the “stoichiometry N” value in data set [2] is 3 and 2.
